Experimental data taken from US12662542B2, “Agnostic anti-mullerian hormone receptor binding peptides” (OVARES D LLC, priority 2019, dated 2026).
Square brackets hold non-standard residues; d marks the D form. Ends that are not written are not given here.

Legend:
[1] = test system: A2780 (endometroid ovarian cancer) cells; assay: MTT cell proliferation assay; format: cell-based; conditions: 5, 10 and 20 μg/ml, 24 hours, vs untreated control
Description: (§1) This example describes the effect of the AMH receptor binding peptides from Example 1 on cellular proliferation, in accordance with certain example embodiments. Briefly, the first two AMH receptor binding peptides (SEQ ID NOS:1-2) from Table 1 were tested on four types of AMHR2-expressing, immortalized, chemotherapy-resistant ovarian cancer cells: SKOV-3 (ovarian serous cystadenocarcinoma), EL-1 (epithelial ovarian cancer), A2780 (endometroid ovarian cancer), and MDAH (endometroid ovarian cancer) in an MTT Assay (Trevigen™ MTT Cell Proliferation Assay).
(§2) For each cell line, cells were seeded into Falcon tissue culture treated 96-well plates in a fixed volume of 100 mcl at a density of 8,000 cells/well. […] Each experiment was executed in triplicates. For 3+1 treatments×3 wells+10 extra=22 wells×8000 cells per well, the total number of cells needed per AMH receptor binding peptide/cell line was 176,000. The cells were spun down in a sterile 15 ml conical tube for 5 minutes at 200×g and then resuspended in 2.2 ml of media (100 ul per well×22 wells). 100 mcl of the cell-containing fluid (=8,000 cells) were placed in each well of the 96-well plate. After 24 hours the media was removed from each well and replaced with the 4 treatment media (phenol-free media). At this point, 10 extra wells with media, but no cells, were created per each cell line (10×4=40 wells). The AMH receptor binding peptides (AMHR2BP (SEQ ID NO: 1) or AMHR2BP2 (SEQ ID NO: 2)) were administered in the culture medium and the effects analyzed after 24 hours in culture as percentage reduction of cell replication using an MTT […] assay.

[2] = test system: MDAH (endometroid ovarian cancer) cells; assay: MTT cell proliferation assay; format: cell-based; conditions: 5, 10 and 20 μg/ml, 24 hours, vs untreated control
Description: as §1, §2

[3] = test system: SKOV-3 (ovarian serous cystadenocarcinoma) cells; assay: MTT cell proliferation assay; format: cell-based; conditions: 5, 10 and 20 μg/ml, 24 hours, vs untreated control
Description: as §1, §2

[4] = test system: EL-1 (epithelial ovarian cancer) cells; assay: MTT cell proliferation assay; format: cell-based; conditions: 5, 10 and 20 μg/ml, 24 hours, vs untreated control
Description: as §1, §2

AMH-R2 = target: T1, AMH-R2 (Homo sapiens, UniProt Q16671); assay: peptide microarray assay identifying AMH receptor binding peptides; conditions: microarray signal
T1 construct: GST
T1 sequence (Q16671 18-573): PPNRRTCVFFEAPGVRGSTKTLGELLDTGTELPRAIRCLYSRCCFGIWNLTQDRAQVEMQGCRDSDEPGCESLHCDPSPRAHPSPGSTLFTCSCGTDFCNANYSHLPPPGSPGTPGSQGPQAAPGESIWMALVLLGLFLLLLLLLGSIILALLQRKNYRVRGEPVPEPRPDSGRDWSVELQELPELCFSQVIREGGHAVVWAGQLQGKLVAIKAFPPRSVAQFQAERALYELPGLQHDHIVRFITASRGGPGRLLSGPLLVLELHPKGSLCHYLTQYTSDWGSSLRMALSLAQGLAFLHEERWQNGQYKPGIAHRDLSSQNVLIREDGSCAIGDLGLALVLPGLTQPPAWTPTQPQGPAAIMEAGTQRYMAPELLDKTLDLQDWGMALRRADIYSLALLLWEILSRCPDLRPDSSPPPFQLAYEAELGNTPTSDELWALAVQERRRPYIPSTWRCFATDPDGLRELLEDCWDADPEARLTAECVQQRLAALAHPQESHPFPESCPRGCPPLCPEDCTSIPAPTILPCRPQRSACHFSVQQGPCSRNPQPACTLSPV
Text: In view of the several actions of AMH, and because of the need for AMH receptor agonists and/or antagonist that can modify the activity of one or more of the AMH receptors, provided herein are AMH receptor binding peptides that modulate the activity of the AMH receptor, as described herein. Briefly, it was hypothesized that peptides that bind AMH receptors could be generated based on the amino acid sequence of the AMH biding site of the AMH-R2 receptor. More particularly, based on the amino acid sequence of the AMH-R2 that is responsible for binding AMH, as well as the amino acid sequences of AMH-R2 that are near the AMH binding site, a peptide microarray was used to identify candidate AMH receptor binding peptides that can activate AMH-R2 and thus produce similar effects to native AMH.
To identify candidate AMH receptor binding peptides described herein, a custom peptide library composed of replicate copies of a 124,000 17 mer peptide microarray was synthesized (Arizona State University, Tempe, AZ) using the method described in Legutki, J. B., et al., Scalable high-density peptide arrays for comprehensive health monitoring. Nat Commun., volume 5, 4785 (2014). The slide was assembled into an Arrayit 4×24 Hybridization Cassette and each peptide microarray was blocked with 150 uL of 30% human sera in 1×PBST for 1 hour at room temperature with shaking After blocking, the slide was washed 3× with 1×PBST using a Biotek plate washer prior to addition of protein targets. Each protein sample was diluted in 30% human sera in 1×PBST and 150 uL of each sample was dispensed into the appropriate wells in the cassette and incubated for 1 hour at 37 C with rotation at 300 rpm on a ThermoMix™ 500 heater/shaker.
After incubation, the cassette was dismantled, the slide washed 3 times in 1×PBST, rinsed three times with distilled, deionized water (ddH2O), and dried in a centrifuge for 2 minutes at 800 rpm. Secondary antibody (anti-GST, GE Healthcare™) was prepared at 10 nM in 30% human sera in 1×PBST and dispensed onto the slide. The slide was incubated for 1 hour at 37 C with rotation at 300 rpm as before. The slide was then washed 3 times in 1×PBST, rinsed 3 times with ddH2O, and dried in a centrifuge for 2 minutes at 800 rpm. Detection antibody, 10 nM Alexa Flour 647 donkey anti-goat IgG (H+L) (ThermoFisher Scientific™), was prepared in 0.75% casein in 1×PBST and dispensed onto the slide. The slide was covered and incubated for 1 hour at 37 C with rotation as before. The slide was washed 3 times in 1×PBST, rinsed 3 times with ddH2O, and dried in a centrifuge for 2 minutes at 800 rpm. The slide was scanned on an Innopsys™ Inoscan 910AL scanner and the resulting TIFF files were analyzed using the Genepix™ Pro 6.0 software. Data files were exported and analyzed using Microsoft Excel™ and JMP™ software.

[5] = test system: ovarian follicles of C57BL/6J female mice; assay: in vivo mouse ovary histology, follicle count and cell proliferation
Text: Knowledge of the developmental landmarks and the highly inbred conformity made C57BL/6J female mice a natural choice for this study. In this mouse strain, puberty is characterized by vaginal opening at approximately 25 days of life, estrus 3-4 days later, and subsequently by regular cycling every 5-6 days. Maturity is considered to be reached at 90 days of life (12 weeks).
Briefly, 24 C57BL mature female mice (18 weeks old) were allocated to four (4) experimental groups: baseline group (6 mice), AMHR2BP (SEQ ID NO: 1) group (6 mice), a recombinant rAMH group (6 mice), and control group (6 mice; 21 weeks of age, that received saline). The six mice in the baseline group were euthanized at the beginning of the experiment and comprised the baseline against which to compare the 2 experimental, and the control, groups. Mice in the AMHR2BP (SEQ ID NO: 1) group received AMHR2BP (SEQ ID NO: 1) at a daily dose of 50 μg/day (BP group); the rAMH group received recombinant AMH (rAMH) at a daily dose of 1.8 μg/day (to obtain 24.0 ng/ml serum level), and the control group received normal saline.
In order to accomplish this task, an osmotic pump was implanted intraperitoneally at time zero. […] The osmotic pump (ALZET Osmotic Pumps, model 1004, Cupertino, CA) administered AMHR2BP (SEQ ID NO: 1) and rAMH with a flow rate (QT) of 0.11 μl/h for 4 weeks, based on a mouse temperature of 36.9° C. and a tissue osmolality of 7.5 atm. The daily AMHR2BP (SEQ ID NO: 1) dose was chosen based on the results of Example 3 (above) and estimated in vitro to in vivo extrapolation (IVIVE), while the rAMH dose was determined as described in reference. Mice in the control group were treated with normal saline by using the same osmotic pump vehicle implanted intraperitoneally. All mice in the 2 experimental, and the control, groups were euthanized 3 weeks into the experiment. All mice underwent a blood draw just prior to euthanasia, and their ovaries were explanted for real-time RT-PCR and histological analyses.
After dissection, one ovary was stored in formalin and embedded in paraffin for immunohistochemical examination of follicular development and count with hematoxylin and eosin staining, while Ki67 slides were used for examination of cell proliferation. The other ovary was frozen for mRNA analysis (see below). Five μm-thick sections were serially cut and every 5th section analyzed for follicular counts. All ovarian cortex specimens where obtained from each group, and at least three sections were analyzed in each tissue specimen. The computerized program used for image analysis, CaseCenter™ by 3DHistech Pathology Information System™ (Version 2.3; Budapest, Hungary), allowed us to examine all the sections at the same time and to accurately count all the follicles in each section without redundancy. For follicle counting, the investigators were blinded to the treatment groups. One oocyte surrounded by a monolayer of flat, or cubic, granulosa cells enclosed by a basement membrane identified a primordial (PDF) and a primary follicle (PRF), respectively. Secondary follicles (SEF) were identified with one oocyte surrounded by multiple layers of cubic granulosa cells, and tertiary follicles (TEF) by fluid accumulation amid the granulosa cells.

luteinized GCs = conditions: rAMH group; cited from earlier work
[6] = mouse ovarian cortex, 3 weeks, i.p. osmotic pump, AMHR2BP 50 μg/day, rAMH 1.8 μg/day

NGSSlQAVNrlSGVS (NGSS[dL]QAVN[dR][dL]SGVS) [SEQ ID NO: 2]
cell proliferation [1]: reduced cellular proliferation | cell proliferation [2]: reduced cellular proliferation | cell proliferation [3]: reduced cellular proliferation | cell proliferation [4]: reduced cellular proliferation | Average (AMH-R2; average of Rep 1 and Rep 2): 65535 | Rep 1 (AMH-R2; replicate 1): 65535 | Rep 2 (AMH-R2; replicate 2): 65535

B1: rAMH: recombinant Anti-Müllerian hormone (rAMH), comparator in the mouse study (protein, UniProt P03971 452-560, looked up)
Muellerian-inhibiting factor: SAGATAADGPCALRELSVDLRAERSVLIPETYQANNCQGVCGWPQSDRNPRYGNHVVLLLKMQVRGAALARPPCCVPTAYAGKLLISLSEERISAHHVPNMVATECGCR
PDFs compared with the control (placebo) group ([5]; control group 21 weeks' age): maintained | PRFs compared with the control (placebo) group ([5]; control group 21 weeks' age): low | SEFs compared with the control (placebo) group ([5]; control group 21 weeks' age): lower | TEFs compared with the control (placebo) group ([5]; control group 21 weeks' age): lower | Corp. Lutea/mm^3 Median [5, 6]: 7.5 /mm^3 | PDF/mm^3 Median [5, 6]: 1182 /mm^3 | PRF/mm^3 Median [5, 6]: 514 /mm^3 | SEF/mm^3 Median [5, 6]: 1144 /mm^3 | TEF/mm^3 Median [5, 6]: 871 /mm^3 | reduction of Ki67 and Caspase3 (luteinized GCs): greater than 30%
